Experiments:
[1] = test system: dual-tropic R5/X4 HIV-2 ROD; experiment: TZM-bl luciferase assay, HIV-2 ROD; assay type: cell-based
[2] = test system: X4 HIV-1 NL4.3 WT; experiment: TZM-bl luciferase assay, NL4.3 WT; assay type: cell-based
[3] = test system: dual-tropic R5/X4 HIV-1 HE; experiment: TZM-bl luciferase assay, HE; assay type: cell-based
[4] = test system: R5 DJ259; experiment: TZM-bl luciferase assay, DJ259; assay type: cell-based, HIV-1; details: read-out: IC50 TZM-bl R5 DJ259 n = 2
[5] = test system: R5 SM145; experiment: TZM-bl luciferase assay, SM145; assay type: cell-based, HIV-1; details: read-out: IC50 TZM-bl R5 SM145 n = 2
[6] = test system: R5 HIV-1 BaL virus; experiment: TZM-bl luciferase assay, BaL; assay type: cell-based; details: read-out: IC50 R5 HIV-1 BaL virus in TZM-bl cells
[7] = test system: dual-tropic R5/X4 HIV-1 HE; experiment: HIV-1 HE infection of PBMCs, p24; assay type: cell-based
[8] = molecular target: interaction of CD4 with the viral gp120 protein (Homo sapiens, UniProt P01730); experiment: ELISA-based competition of CD4-gp120 interaction; assay type: binding; details: 500 nM Nanobody; gp120 HIV-1 IIIB
Method: Besides its role on T-cells, CD4 also serves as primary receptor for HIV entry. Therefore purified CD4 Nanobodies were analysed for the capacity to block the interaction of CD4 with the viral gp120 protein. Monovalent His-tagged Nanobodies were purified from periplasmic extracts by affinity and desalting chromatography and used in an ELISA-based competition setup. In short, 1 μg/ml of gp120 HIV-1 IIIB (Immunodiagnostic) was captured by 20 μg/ml of sheep anti-gp120 antibody D7324 (Aalto Bio Reagents) previously coated in 96 well Maxisorp microtiter plates (Nunc) and blocked with 1% casein in PBS. In parallel, 0.5 μg/ml of biotinylated CD4 was incubated with 500 nM of the different purified Nanobodies in 100 μl 0.1% Casein/PBS. After 1 hour, the biotinylated CD4-Nanobody pre-mixes were incubated 1 hour with the captured gp120. Bound biotinylated CD4 was detected using HRP-conjugated Extravidin (Sigma E2886). A blocking mouse anti-CD4 IgG2a antibody (Diaclone, clone B-A1 cat#854.030.000) was used as positive control. Blocking activity was determined as loss of O.D. signal, as compared to wells where no Nanobody was added.

[9] = molecular target: T1, CXCR4 (Homo sapiens, UniProt P61073); experiment: CXCL12-AF647 binding inhibition on SupT1 cells by flow cytometry; details: T-cells (SUPT-1)
[10] = molecular target: T1, CXCR4; experiment: Displacement of biotinylated SDF-1 on Caki cells expressing hCXCR4, flow cytometry; assay type: binding; details: 30 nM biotinylated SDF-1
Method: In addition, CXCR4 Nanobodies were analysed for ligand competition by displacement of biotinylated SDF-1 on transient transfected Caki cells expressing hCXCR4 in flow cytometry. To this end, serial dilutions of Nanobodies were pre-incubated with 30 nM of biotinylated SDF-1 (R&D Systems Fluorikine kit) and incubated to Caki-CXCR4 cells for 1 hour at 4C, after which ligand binding was visualised using extravidin-PE. The biotin-SDF-1 competitor concentration used in this assay was below the EC50 value obtained in dose-titration, where IC50 values should reflect the Ki. Ligand displacement IC50 values were calculated, and compared to the NL4.3 (X4) neutralization potencies.

[11] = molecular target: T1, CXCR4; experiment: Inhibition of SDF-1 mediated chemotaxis; assay type: cell-based; details: average of 3
Method: As chemoattractant a concentration of 750 pM SDF-1α (R&D Systems) was used on 100,000 cells/well for the Jurkat cell line, and 500,000 cells/well for the MOLM-13 cell line. SDF-1α and serially diluted Nanobody constructs were added to the bottom of a small chemotaxis plate (Neuprobe 106-5) in a total volume of 29 μl. A chemotaxis filter membrane (ChemoTx® Disposibla, pore size 5 μm) was placed on top of the wells, ensuring that the membrane was in contact with the solution in the wells below. A Nanobody dilution (10 μl at 5× the serially diluted final concentration as below the membrane in each well) was added on top of the membrane, followed by 40 μl of cell suspension. The plates were incubated for 3 hours at 37° C. in a humidified incubator (5% CO2). After incubation, the filters were carefully removed and the cells in the well below were resuspended in the existing solution. The complete cell suspension was transferred to the corresponding wells of white polystyrene Costar plates. After this, 30 μl of Cell Titer Glo reagent (Promega G7571) was added to each well, followed by a 10 minute incubation, with shaking in the dark. Luminescence was measured (1 sec/well) using an Envision 2103 Multilabel Reader with emission filter 700 (Perkin Elmer). […]

[12] = molecular target: T2, CD4 (Homo sapiens, UniProt P01730); experiment: Flow cytometry binding of purified CD4 Nanobodies to Jurkat and THP-1 cells; details: 100 nM Nanobody
Method: Murine Ba/F3 myeloid cells were used as negative control cells. Purified Nanobodies (100 nM) were allowed to bind to 10^5 cells for 30 minutes at 4° C. in a final volume of 100 μl of 10% FBS (Invitrogen, Cat 10270-106) in PBS (Invitrogen #14190). Bound Nanobodies were detected with mouse anti-myc antibody (Serotec, Cat#MCA2200) followed by goat anti-mouse-PE antibody (Jackson #115-115-164). Dead cells percentage population was determined by staining the cells with TOPRO3 (Molecular probes T3605). Using a BD FACS Array Bioanalyzer system, a PE filter 585/42 and a Topro filter 661/16, twenty thousand events were acquired. TOPRO3+ cells were excluded, and the mean channel fluorescence (MCF) was calculated. Expression of CD4 in Jurkat and THP-1 cells was confirmed by using 10 μg/ml of an anti-CD4 monoclonal antibody (Diaclone, clone B-A1 cat#854.030.000). Staining of the cells with anti-myc and/or the goat anti mouse-PE antibodies antibody was performed as negative controls.

[13] = molecular target: T1, CXCR4; experiment: Inhibition of SDF-1 induced Ca2+ signaling in U87.CD4.CXCR4 cells (FLIPR); assay type: cell-based
[14] = molecular target: cynomolgus CD4 (Macaca fascicularis, UniProt P79185); experiment: Binding of 3F11 to cynomolgus CD4+ HSC-F T cells, flow cytometry; details: HSC-F T cell line
[15] = molecular target: T2, CD4; experiment: FACS binding of CD4 Nanobody 3F11 to human cells; details: CD8+ T cells isolated from human PBMCs
Method: The EC50 values results are depicted in Table 2.4. […] To confirm the specificity of the anti-CD4 Nanobody, binding of 03F11 was also assessed to cytotoxic CD8^+ T cells isolated from human PBMCs using the CD8 T Cell Isolation Kit (Miltenyi Biotech, Cat. 130-096-495), resulting in 94% purity of CD8^+ cells.

[16] = test system: HUT-78/HIV-1 NL4.3; experiment: HIV-1-mediated cell-cell fusion, HUT-78/NL4.3 with SupT1 cells; details: read-out: IC50 cell-cell fusion
[17] = test system: HIV-1 X4 NL4.3 strain; experiment: HIV-1 NL4.3 infection of PHA-stimulated PBMCs, p24 Ag ELISA; assay type: cell-based

T1 sequence (P61073 whole entry): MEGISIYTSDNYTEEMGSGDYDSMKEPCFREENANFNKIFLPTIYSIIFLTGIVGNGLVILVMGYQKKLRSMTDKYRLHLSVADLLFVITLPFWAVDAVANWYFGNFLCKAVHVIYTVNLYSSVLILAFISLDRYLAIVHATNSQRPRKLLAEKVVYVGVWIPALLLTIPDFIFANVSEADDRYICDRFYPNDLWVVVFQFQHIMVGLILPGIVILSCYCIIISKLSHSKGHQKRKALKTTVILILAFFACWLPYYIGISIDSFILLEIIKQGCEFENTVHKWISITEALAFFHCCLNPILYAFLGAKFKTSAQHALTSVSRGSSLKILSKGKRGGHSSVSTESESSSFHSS
Sequence of cynomolgus CD4 (P79185 26-458): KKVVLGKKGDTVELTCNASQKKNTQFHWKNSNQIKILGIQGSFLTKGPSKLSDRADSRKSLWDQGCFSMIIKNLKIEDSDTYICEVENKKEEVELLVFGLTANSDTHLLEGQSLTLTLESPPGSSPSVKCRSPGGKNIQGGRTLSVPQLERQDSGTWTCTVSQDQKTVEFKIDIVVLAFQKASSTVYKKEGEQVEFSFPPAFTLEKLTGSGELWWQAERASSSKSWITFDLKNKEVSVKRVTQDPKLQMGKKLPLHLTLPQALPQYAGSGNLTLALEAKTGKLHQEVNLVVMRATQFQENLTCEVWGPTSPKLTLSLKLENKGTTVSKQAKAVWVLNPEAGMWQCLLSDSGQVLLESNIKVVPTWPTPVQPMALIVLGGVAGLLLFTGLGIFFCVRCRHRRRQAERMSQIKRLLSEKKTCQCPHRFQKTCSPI

For maraviroc [AMD14031], the “activity against R5/X4 HIV-2 ROD in TZM-bl cells” value [1] was “did not block”, the “IC50 X4 HIV-1 NL4.3 in TZM-bl cells” value [2] was “did not block” and the “activity against R5/X4 HIV-1 HE in TZM-bl cells” value [3] was “did not block”. It also gave an IC50 [4] of 7540 nM, an IC50 [5] of 2820 nM and an IC50 [6] of 4200 nM. The “IC50 dual-tropic R5/X4 HIV-1 HE in PBMCs” value [7] was “never showed any significant anti-HIV-1 HE activity”.

B1: 01B6: anti-CD4 Nanobody, SEQ ID NO: 17 (protein)
VHH: EVQLVESGGGLVQSGGSLRLSCAASGFTFSGYWMYWVRQAPGKGLEWVSAISPGGGSTYYPDSVKGRFTISRDNAKNTLYLQMNSLKPEDTALYYCASSLTATHTYEYDYWGQGTQVTVSS
modifications: Nanobody Sequence
B1 was tested, and the “blocking of in vitro interaction of CD4 with gp120” value [8] was “block”.

B2: 281F12-35GS-3F11: bispecific CXCR4-CD4 polypeptide, SEQ ID NO: 106 (protein)
chain: EVQLVESGGGLVQAGDSLRLSCAASGRAFSRYAMGWFRQAPGKEREFVAAIGWGPSKTNYADSVKGRFTISRDNAKNTVYLQMNTLKPEDTAVYSCAAKFVNTDSTWSRSEMYTYWGQGTQVTVSSGGGGSGGGGSGGGGSGGGGSGGGGSGGGGSGGGGSEVQLVESGGGSVQPGGSLTLSCGTSGRTFNVMGWFRQAPGKEREFVAAVRWSSTGIYYTQYADSVKSRFTISRDNAKNTVYLEMNSLKPEDTAVYYCAADTYNSNPARWDGYDFRGQGTQVTVSS
modifications: chains of the parent or of the whole protein
B2 showed an IC50 ([9]; read-out: IC50 of blocking CXCL12AF647 binding to CXCR4) of 0.97 nM.

B3: 15G11: anti-CXCR4 Nanobody, SEQ ID NO: 14 (protein)
VHH: EVQLVESGGGLVQAGDSLRVSCAASGRTSSYAMAWFRQAPGKEREFVGTISRTNSRTKYADFVEGRFTISRDNAKSTLSLQMTSLKPEDTAVYYCAAKWTGNSYHDYTWSKVDEYNVWGQGTQVTVSS
modifications: Nanobody Sequence
With B3 the “ligand displacement to CXCR4” value [10] was “hardly any ligand displacement”.

B4: 3F11: anti-CD4 Nanobody, SEQ ID NO: 20 (protein)
VHH: EVQLVESGGGSVQPGGSLTLSCGTSGRTFNVMGWFRQAPGKEREFVAAVRWSSTGIYYTQYADSVKSRFTISRDNAKNTVYLEMNSLKPEDTAVYYCAADTYNSNPARWDGYDFRGQGTQVTVSS
modifications: Nanobody Sequence
B4 was tested, and the “Inhibition of SDF-1a-mediated chemotaxis IC50 MOLM-13 cells” value [11] was “did not have any effect on SDF-1 function”, the “binding to CD4 expressed on a cell surface” value [12] was “highest binding signal on THP-1 cells” and the “IC50 of CXCL-12-induced Ca2+-signaling inhibition” value [13] was “no CXCL-12-induced Ca^2+-signaling inhibition”. For the same molecule, the “binding to cynomolgus CD4” value [14] was “cross-reactive to cynomolgus CD4”, the “binding to cytotoxic CD8+ T cells” value [15] was “No binding” and the “blocking of in vitro interaction of CD4 with gp120” value [8] was “block”. The “IC50 of blocking CXCL12AF647 binding to CXCR4” value [9] was “did not interfere”, the “IC50 dual-tropic R5/X4 HIV-1 HE in PBMCs” value [7] was “not active” and the IC50 [16] was 2700 nM. For the same molecule, the “IC50 HIV-1 NL4.3 in PBMC” value [17] was “weakly active”.

Source: patent publication US10273305B2, “Bispecific CXCR4-CD4 polypeptides with potent anti-HIV activity” (Ablynx N.V., priority 2015, dated 2019)
